Positions count from the first letter of the chain named.

What all share (assay): ELONA; RPB-ELISA
A general note: An ELISA detects its analyte on a solid surface through an enzyme-linked reagent.

The target in one series is T1, v3.1_PPR17 (Artificial Sequence).
T1 chain: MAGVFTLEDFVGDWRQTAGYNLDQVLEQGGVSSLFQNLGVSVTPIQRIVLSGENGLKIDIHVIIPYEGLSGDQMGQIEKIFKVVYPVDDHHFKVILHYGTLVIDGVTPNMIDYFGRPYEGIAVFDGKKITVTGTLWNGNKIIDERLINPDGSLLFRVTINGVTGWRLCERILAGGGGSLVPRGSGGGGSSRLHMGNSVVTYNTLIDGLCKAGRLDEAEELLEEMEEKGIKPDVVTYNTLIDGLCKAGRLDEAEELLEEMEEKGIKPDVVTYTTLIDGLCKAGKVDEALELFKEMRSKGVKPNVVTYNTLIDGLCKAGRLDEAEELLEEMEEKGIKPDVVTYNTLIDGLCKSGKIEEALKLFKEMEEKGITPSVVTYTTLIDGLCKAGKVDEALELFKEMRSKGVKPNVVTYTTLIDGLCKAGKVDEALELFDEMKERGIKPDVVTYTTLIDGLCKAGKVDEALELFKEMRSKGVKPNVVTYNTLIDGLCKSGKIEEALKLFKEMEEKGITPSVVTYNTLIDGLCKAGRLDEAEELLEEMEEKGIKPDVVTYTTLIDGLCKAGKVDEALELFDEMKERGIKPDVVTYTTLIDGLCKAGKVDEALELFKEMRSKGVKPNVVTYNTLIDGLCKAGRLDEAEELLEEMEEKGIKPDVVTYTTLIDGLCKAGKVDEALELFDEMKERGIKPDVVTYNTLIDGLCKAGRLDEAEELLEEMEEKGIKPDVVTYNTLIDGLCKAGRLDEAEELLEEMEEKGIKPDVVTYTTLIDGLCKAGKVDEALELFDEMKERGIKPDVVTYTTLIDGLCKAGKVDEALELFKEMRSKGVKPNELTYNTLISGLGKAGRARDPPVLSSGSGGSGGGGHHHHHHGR
The note with it: tags: luciferase fusion; label: 5'-biotin.

For a further series, the target named is T2, NL_v2_PPR18 (Artificial Sequence).
T2 chain: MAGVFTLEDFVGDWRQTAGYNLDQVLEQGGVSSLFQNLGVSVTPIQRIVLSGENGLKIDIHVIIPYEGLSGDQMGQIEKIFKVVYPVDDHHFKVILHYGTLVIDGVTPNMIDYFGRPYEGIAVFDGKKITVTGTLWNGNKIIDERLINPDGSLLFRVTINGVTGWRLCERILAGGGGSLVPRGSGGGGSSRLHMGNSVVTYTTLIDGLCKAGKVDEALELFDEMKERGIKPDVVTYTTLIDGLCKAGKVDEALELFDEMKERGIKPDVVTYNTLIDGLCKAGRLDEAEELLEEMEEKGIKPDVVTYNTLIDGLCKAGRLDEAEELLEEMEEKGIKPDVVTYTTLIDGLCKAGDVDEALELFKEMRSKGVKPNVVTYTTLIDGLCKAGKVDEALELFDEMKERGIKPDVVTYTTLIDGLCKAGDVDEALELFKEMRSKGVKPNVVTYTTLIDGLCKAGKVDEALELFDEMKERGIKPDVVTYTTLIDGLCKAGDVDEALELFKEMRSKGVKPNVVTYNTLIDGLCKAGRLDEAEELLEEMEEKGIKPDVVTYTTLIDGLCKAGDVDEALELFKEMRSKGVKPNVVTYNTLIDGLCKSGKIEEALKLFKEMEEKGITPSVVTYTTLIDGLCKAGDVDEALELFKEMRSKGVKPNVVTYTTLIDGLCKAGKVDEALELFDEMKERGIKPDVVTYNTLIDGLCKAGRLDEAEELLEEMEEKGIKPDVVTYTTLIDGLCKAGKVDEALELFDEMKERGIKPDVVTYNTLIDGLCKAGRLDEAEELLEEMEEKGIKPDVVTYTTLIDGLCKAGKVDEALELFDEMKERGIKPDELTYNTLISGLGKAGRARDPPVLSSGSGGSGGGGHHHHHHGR
The note with it: tags: N-term luciferase, C-term 6xHis; label: 5'-biotin.

Another series deals with T3, v3.1_PPR18 (Artificial Sequence).
T3 chain: T2 chain with D353K, D423K, D493K, D563K, D633K
The note with it: tags: luciferase fusion; label: 5'-biotin.

The next series addresses T4, v3.1_PPR16 (Artificial Sequence).
T4 chain: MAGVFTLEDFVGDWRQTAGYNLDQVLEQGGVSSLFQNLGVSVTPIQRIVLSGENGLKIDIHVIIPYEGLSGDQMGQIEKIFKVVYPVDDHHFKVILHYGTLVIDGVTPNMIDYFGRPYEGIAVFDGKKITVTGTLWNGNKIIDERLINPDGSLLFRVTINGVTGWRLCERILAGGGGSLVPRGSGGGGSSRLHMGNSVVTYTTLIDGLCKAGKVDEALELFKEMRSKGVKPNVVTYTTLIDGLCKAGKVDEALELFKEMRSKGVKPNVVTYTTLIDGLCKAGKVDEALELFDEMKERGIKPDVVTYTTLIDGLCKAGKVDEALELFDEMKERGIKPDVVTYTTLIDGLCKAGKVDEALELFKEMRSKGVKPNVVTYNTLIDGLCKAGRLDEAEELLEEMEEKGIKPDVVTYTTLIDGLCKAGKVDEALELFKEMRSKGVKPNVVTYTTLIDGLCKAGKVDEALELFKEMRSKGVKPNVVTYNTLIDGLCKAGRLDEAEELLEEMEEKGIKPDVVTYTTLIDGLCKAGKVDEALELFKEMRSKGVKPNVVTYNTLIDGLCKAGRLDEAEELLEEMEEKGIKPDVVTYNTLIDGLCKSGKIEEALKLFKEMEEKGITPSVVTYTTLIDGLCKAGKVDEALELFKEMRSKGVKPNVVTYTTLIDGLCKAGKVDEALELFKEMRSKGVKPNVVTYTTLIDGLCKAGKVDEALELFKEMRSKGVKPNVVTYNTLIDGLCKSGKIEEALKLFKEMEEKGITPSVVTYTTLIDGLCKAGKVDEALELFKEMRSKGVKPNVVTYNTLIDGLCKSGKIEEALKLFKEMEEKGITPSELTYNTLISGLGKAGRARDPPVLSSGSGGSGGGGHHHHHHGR
The conditions noted are these: tags: luciferase fusion; label: 5'-biotin.

Another series has as its target T5, NL_v2_PPR16 (Artificial Sequence).
T5 chain: T4 chain with K213D, K248D, K353D, K423D, K458D, K528D, K633D, K668D, K703D, K773D
The conditions noted are these: tags: N-term luciferase, C-term 6xHis; label: 5'-biotin.

As for GACAUGCUUAUCAGACUGAUGUUGAGACUG (ssRNA) [RNA_17], the binding signal with v3.1_PPR17 was 3.3e+07 luminescence.

Consider GACAUGCGGUUAGAGAUACAGUGUGGACUG (ssRNA) [RNA_18], for which the binding signal in the series with NL_v2_PPR18 is 1.1e+07 luminescence; in the series with v3.1_PPR18, 2.9e+07 luminescence.

For the molecule GACAUGCAAGGAUAAUAUCAAACACGACUG (ssRNA) [RNA_16], the binding signal with v3.1_PPR16 is 6.3e+07 luminescence; with NL_v2_PPR16 it was 2.8e+07 luminescence.

Source of the values: US20220289795, “EFFICIENT METHOD FOR PREPARING PPR PROTEIN AND USE OF THE SAME” (EditForce, Inc., published 2022).
